Measured values published in patent US20200115714A1 (GEORGIA TECH RESEARCH, published 2020).

T1: E. coli fatty acid biosynthesis acyl carrier protein (E. coli AcpP), P0A6A8
T1 chain: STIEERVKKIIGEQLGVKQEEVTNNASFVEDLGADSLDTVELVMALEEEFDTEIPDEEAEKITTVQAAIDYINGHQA

B1: AbTE:G17E (protein)
chain: MGKTILILGDSLSAGYEINPEQGWVALLQKRLDQQFPKQHKVINASVSGETTSGALARLPKLLTTYRPNVVVIELGGNDALRGQPPQMIQSNLEKLIQHSQKAKSKVVVFGMKIPPNYGTAYSQAFENNYKVVSQTYQVKLLPFFLDGVAGHKSLMQNDQIHPNAKAQSILLNNAYPYIKGAL
B2: AbTE:G17E/A165R (protein)
chain: MGKTILILGDSLSAGYEINPEQGWVALLQKRLDQQFPKQHKVINASVSGETTSGALARLPKLLTTYRPNVVVIELGGNDALRGQPPQMIQSNLEKLIQHSQKAKSKVVVFGMKIPPNYGTAYSQAFENNYKVVSQTYQVKLLPFFLDGVAGHKSLMQNDQIHPNRKAQSILLNNAYPYIKGAL
B3: AbTE:T120R/A121R (protein)
chain: MGKTILILGDSLSAGYGINPEQGWVALLQKRLDQQFPKQHKVINASVSGETTSGALARLPKLLTTYRPNVVVIELGGNDALRGQPPQMIQSNLEKLIQHSQKAKSKVVVFGMKIPPNYGRRYSQAFENNYKVVSQTYQVKLLPFFLDGVAGHKSLMQNDQIHPNAKAQSILLNNAYPYIKGAL
B4: AbTE:G17R (protein)
chain: MGKTILILGDSLSAGYRINPEQGWVALLQKRLDQQFPKQHKVINASVSGETTSGALARLPKLLTTYRPNVVVIELGGNDALRGQPPQMIQSNLEKLIQHSQKAKSKVVVFGMKIPPNYGTAYSQAFENNYKVVSQTYQVKLLPFFLDGVAGHKSLMQNDQIHPNAKAQSILLNNAYPYIKGAL
B5: AbTE:G17R/A165E (protein)
chain: MGKTILILGDSLSAGYRINPEQGWVALLQKRLDQQFPKQHKVINASVSGETTSGALARLPKLLTTYRPNVVVIELGGNDALRGQPPQMIQSNLEKLIQHSQKAKSKVVVFGMKIPPNYGTAYSQAFENNYKVVSQTYQVKLLPFFLDGVAGHKSLMQNDQIHPNEKAQSILLNNAYPYIKGAL
B6: Acinetobacter baylyi acyl-ACP thioesterase (AbTE) wild type (protein)
chain: MGKTILILGDSLSAGYGINPEQGWVALLQKRLDQQFPKQHKVINASVSGETTSGALARLPKLLTTYRPNVVVIELGGNDALRGQPPQMIQSNLEKLIQHSQKAKSKVVVFGMKIPPNYGTAYSQAFENNYKVVSQTYQVKLLPFFLDGVAGHKSLMQNDQIHPNAKAQSILLNNAYPYIKGAL
B7: AbTE:G17E/A165E (protein)
chain: MGKTILILGDSLSAGYEINPEQGWVALLQKRLDQQFPKQHKVINASVSGETTSGALARLPKLLTTYRPNVVVIELGGNDALRGQPPQMIQSNLEKLIQHSQKAKSKVVVFGMKIPPNYGTAYSQAFENNYKVVSQTYQVKLLPFFLDGVAGHKSLMQNDQIHPNEKAQSILLNNAYPYIKGAL
B8: AbTE:G17R/A165R (protein)
chain: MGKTILILGDSLSAGYRINPEQGWVALLQKRLDQQFPKQHKVINASVSGETTSGALARLPKLLTTYRPNVVVIELGGNDALRGQPPQMIQSNLEKLIQHSQKAKSKVVVFGMKIPPNYGTAYSQAFENNYKVVSQTYQVKLLPFFLDGVAGHKSLMQNDQIHPNRKAQSILLNNAYPYIKGAL
B9: AbTE:G17R with C-terminal His6-tag (pET-28b-AbTE:G17R) (enzyme)
chain: MGKTILILGDSLSAGYRINPEQGWVALLQKRLDQQFPKQHKVINASVSGETTSGALARLPKLLTTYRPNVVVIELGGNDALRGQPPQMIQSNLEKLIQHSQKAKSKVVVFGMKIPPNYGTAYSQAFENNYKVVSQTYQVKLLPFFLDGVAGHKSLMQNDQIHPNAKAQSILLNNAYPYIKGALHHHHHH
notes: Purified protein; also called pET-AbTE:G17R
B10: AbTE:G17R/A165R with C-terminal His6-tag (pET-28b-AbTE:G17R/A165R) (enzyme)
chain: MGKTILILGDSLSAGYRINPEQGWVALLQKRLDQQFPKQHKVINASVSGETTSGALARLPKLLTTYRPNVVVIELGGNDALRGQPPQMIQSNLEKLIQHSQKAKSKVVVFGMKIPPNYGTAYSQAFENNYKVVSQTYQVKLLPFFLDGVAGHKSLMQNDQIHPNRKAQSILLNNAYPYIKGALHHHHHH
notes: Purified protein; also called pET-AbTE:G17R/A165R

What was measured:
[1] = target: T1, E. coli fatty acid biosynthesis acyl …
15N-octanoyl-AcpP = target: T2, 15N-octanoyl-AcpP (Escherichia coli, UniProt P0A6A8 2-78, octanoyl group, 15N-labelled (printed as 15N-octanoyl-AcpP); attachment site not given); assay: NMR titrations between 15N-octanoyl-AcpP and the AbTEs
T2 construct: Purified, labelled AcpP of the NMR titrations; also called 15N-AcpP; E. coli ACP

Binder | secreted MCFAs, E. coli (GC/MS) [1] | secreted MCFAs, E. coli MG1655, 24 hrs (GC/MS) [1] | secreted MCFAs, E. coli, 72 hrs (GC/MS) [1] | other results
B1 | ˜21 mg/L and 14 mg/L of secreted MCFAs, respectively | – | – | –
B2 | This favorable effect in secreted MCFAs or secreted fatty acids of all chain lengths is not seen in AbTE:G17E/A165R | – | – | –
B3 | – | – | – | secreted MCFAs, E. coli, 24 hrs (GC/MS) [1]: AbTE:T120R/A121R produced ˜45 mg/L of secreted MCFAs
B4 | – | ˜76 mg/L of secreted MCFAs | cultivating E. coli expressing AbTE:G17R for 72 hrs did not result in any changes in MCFA titers | –
B5 | AbTE:G17R/A165E resulted in ˜57 mg/L of secreted MCFAs | – | – | –
B6 | – | ˜29 mg/L of secreted MCFAs | from ˜29 mg/L to ˜79 mg/L | –
B7 | ˜21 mg/L and 14 mg/L of secreted MCFAs, respectively | – | – | –
B8 | – | ˜98 mg/L of secreted MCFAs | increased from 98 mg/L to 131 mg/L when extending the cultivation time from 24 hrs to 72 hrs | secreted MCFA titers against AbTE:G17R [1]: a 29% increase in secreted MCFA titers when compared to expression of AbTE:G17R; secreted MCFA titers against AbTE:WT [1]: a more than 3-fold in secreted MCFA titers when compared to AbTE:WT
B9 | – | – | – | binding result (15N-octanoyl-AcpP): binds
B10 | – | – | – | binding result (15N-octanoyl-AcpP): binds
